# Source: the supplement of paper PMC12042874
# ± gives the uncertainty stated by the source.
# Assay: amyloid nucleation score (Sup35N fusion, yeast selection) (log enrichment); library NNK2; higher = more nucleation; inactive = no reads after selection
# Outline: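 The nucleation score is a DiMSum log enrichment of output over input reads, centred on the mode score of non-aggregating sequences. Sequences under 100 input reads were excluded, and reads came from Illumina sequencing of plasmid inserts. Psi-negative yeast expressing Sup35N fused to peptides of 20 random codons were induced with 100 μM copper sulfate for 24 hours and grown 7 days at 30°C on medium lacking adenine and uracil. Random libraries had three technical output replicates.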
row,Substance,amyloid nucleation score
1,IYLTSIYRQFSMLLLGSRTE,inactive
2,IYMRRCSVLGSHCH,0.081 ± 1.1
3,IYNMRHSMTMFHCYGFLRRV,-0.976 ± 0.63
4,IYPSVRYPMYAITKRYSRVG,-0.769 ± 0.28
5,IYREVYAL,inactive
6,IYVFGIGTYMVTQFLCSTTI,6.909 ± 0.031
7,IYWLSYQTMVPIQAVYIHRC,-0.087 ± 0.42
8,IYYLRLWSM,inactive
9,KAGESWTEGDSAVWGFLRLE,0.942 ± 0.81
10,KAKLMKRSFWMWSCLLCFR,0.912 ± 0.74
11,KASTRQ,1.51 ± 0.34
12,KATWS,-1.2 ± 0.76
13,KCHCRAMS,inactive
14,KCRLSIF,inactive
15,KCVVKELYWLWFHLSSVNLY,-1.23 ± 1.1
16,KCYQSFNNADALM,-0.627 ± 0.33
17,KDGEVAAMPGRGVHQVMGEK,0.325 ± 0.49
18,KDLGA,3.08 ± 0.13
19,KDPLNYNSYSVLLDIWWNLS,1.57 ± 0.15
20,KELLMAIASWSRLSGDIAVD,-0.86 ± 0.78
21,KFGSWDHSACYSRWYSKSFV,-0.012 ± 1.1
22,KFIFTSLAN,-0.425 ± 0.61
23,KFIPLINIRTQL,inactive
24,KFSKIRFAFIIFGSKPYMRV,-0.875 ± 0.49
25,KFWLCDEGYWWNVASGLSSV,0.845 ± 0.32

row,Substance,amyloid nucleation score
1,KGGAARSVWISMCFFKAFYR,-0.358 ± 1
2,KGGSRLCNFRSATKLSGPLL,0.597 ± 0.46
3,KGRGEMSLLFYSILLVGFCL,inactive
4,KHMNAYCNVTYQIDFRCIIS,inactive
5,KHMYYYCLYANELQVAVEMN,-0.235 ± 0.45
6,KIFSSF,-1.01 ± 1.1
7,KIIISYGQCK,2.71 ± 0.2
8,KILNPERRSNGWVMMKFVVD,-0.599 ± 1
9,KIVSWAMIIARVVYCDQDL,inactive
10,KIWHLSQYCAVFSLVFKGLN,2.41 ± 0.15
11,KKDSSWFRLNDKKVVSSHKR,-0.215 ± 0.2
12,KKLALKVVVSNCFKK,5.991 ± 0.048
13,KKSRNPHGKFTWTFGFVKKL,-1.76 ± 1.1
14,KLANV,inactive
15,KLGVKLASTLGISRLPHTTS,0.827 ± 0.23
16,KLIHWIILVWFSSGTLPCND,-0.133 ± 0.5
17,KLMFRHV,5.01 ± 0.081
18,KLNCMRGLPGLCPRWFIIAC,0.089 ± 1.1
19,KLPFICINRGWWLVGRINSS,3.07 ± 0.18
20,KLQFVGFCTNDAKYKGRIPG,2.35 ± 0.089
21,KLYKCQRQCPALAKVTYGYK,0.332 ± 0.27
22,KMCLIRYMHNPKVGIRLGRS,0.102 ± 0.33
23,KMHCGFDFEWVTTYNTTIVR,-0.369 ± 0.47
24,KMHLAQ,inactive
25,KMKFKKENFC,-0.858 ± 1

row,Substance,amyloid nucleation score
1,KMMLSTRSQYPS,0.489 ± 0.36
2,KMQMLWTGVCRVLFVAPQPN,0.319 ± 0.36
3,KMTYP,2.14 ± 0.13
4,KNNRVAFTLYFSQTARDWMH,5.156 ± 0.046
5,KNNTADWWIRSNSERYRN,-0.039 ± 0.46
6,KNSWAAVPRSEEYCREVIGH,0.482 ± 0.56
7,KPFFEKFVSTLGLWFEQLKS,-0.574 ± 0.42
8,KPWVTLLVCCSVYRFFMYYA,4.96 ± 0.081
9,KQLFSLISYVG,-1.4 ± 1.1
10,KQLMRGIWDRG,-0.217 ± 0.79
11,KRCYCIKGVCNLNGISPKVK,-0.468 ± 0.36
12,KRFYMT,1.31 ± 0.081
13,KRRSQIRMTNDNLASVNMKN,1.43 ± 0.096
14,KRSLLQKLCC,-0.421 ± 0.61
15,KRSVAVFRRCV,0.817 ± 0.44
16,KRVGTYEVKI,-0.253 ± 0.55
17,KRWQVLFDRSRKYCRVGKT,0.161 ± 0.56
18,KSDTMLRDYKKWVGHELYTR,0.066 ± 0.54
19,KSGLTQLLQILSSCLELGIW,0.38 ± 0.51
20,KSLYIGSAY,1 ± 0.42
21,KSQRKVIGTLLKVYWPWGCM,0.654 ± 0.25
22,KSTVIMSDTFLR,-0.271 ± 1
23,KSVRIWPSVSAGTRRLKQS,inactive
24,KTDRLTKGTATFKRMTEI,inactive
25,KTFLVDSLCNRL,inactive

row,Substance,amyloid nucleation score
1,KTFRCRRCGNN,0.721 ± 0.6
2,KTLFINLHSCCANVGYAVRW,4.87 ± 0.058
3,KTNSIPYSMVS,-0.113 ± 1.1
4,KTTHDCGSAHVGL,-0.504 ± 0.63
5,KVAFKIALKSSTIWFIDS,2.47 ± 0.13
6,KVANRYIK,0.136 ± 0.32
7,KVFSPHRNWWVI,0.553 ± 0.57
8,KVLLMTRT,-0.113 ± 0.45
9,KVSSLNCCVRCLDTMCAFQV,6.15 ± 0.088
10,KWFSIMRPVRLVRFHWTGSN,3.63 ± 0.089
11,KWPHRYINTLVPLLIRWTYR,-0.421 ± 0.37
12,KWRAFYPSTGSLRVEILSF,-1.22 ± 1.1
13,KWSFF,4.34 ± 0.081
14,KWYKVVNMALALISMWSQAW,-0.701 ± 0.63
15,KYEIRAASARGGSNVCFCIG,0.691 ± 0.19
16,KYNQPIMNSSSRGADCGCVR,4.16 ± 0.07
17,KYNSCSYEGSRRILFSGACR,-0.699 ± 0.45
18,KYVFGKTYPRY,inactive
19,LAALR,0.159 ± 0.3
20,LAGGCRRTPAVINRLFVKTA,0.374 ± 0.4
21,LAGNKYPWLS,-1.1 ± 0.53
22,LAHGPWGVSGDSV,0.019 ± 1.1
23,LAIDIMPFPCDTLS,-0.289 ± 0.26
24,LAKFYLWCSGYMHSS,0.214 ± 0.65
25,LAKHTGRAGKRCKDMP,-0.069 ± 0.31

row,Substance,amyloid nucleation score
1,LALCREWVTAGSGSFYLDGP,-0.06 ± 1.1
2,LALIMTFLQPGERLRGSVAI,inactive
3,LALMS,-0.324 ± 0.61
4,LANYYFYYKDDVWQVMLWCT,-1.15 ± 0.36
5,LARGCFAFN,-0.363 ± 1
6,LATNNVS,0.979 ± 0.67
7,LATTVYFGAMGHVS,-1.38 ± 1
8,LATWLP,0.871 ± 0.21
9,LAVHYHILRERTALCLGDHQ,-0.127 ± 1.1
10,LAVIGVSRGMGL,0.716 ± 0.25
11,LAVLGVVDNIV,0.516 ± 0.4
12,LAVVTCHCSSTCCSYLLNVG,3.38 ± 0.06
13,LAYPMISVFYHELIIDLRSM,3.92 ± 0.11
14,LAYRKVLCMYSVSHSYTRAC,inactive
15,LCFATYVGTGCVLGLPGYHK,4.59 ± 0.066
16,LCHYGCMVRESNLEYCPSME,0.381 ± 0.48
17,LCIDHYVDEMPSIRVVDFYF,0.741 ± 0.6
18,LCINN,-1.99 ± 1.1
19,LCLDIMFVSNI,-0.696 ± 1
20,LCNGLFTFMEASSGRHAPQF,0.138 ± 0.76
21,LCNNKAYNDKLSPEPLAISR,-0.578 ± 0.39
22,LCPLTHFFVFEVYFSDPYRE,5.69 ± 0.075
23,LCSLDSMPHSYITCSAKRLI,-0.443 ± 0.3
24,LCSMEIWRMRRMMQS,0.154 ± 0.34
25,LCVYLYWF,-1.01 ± 0.39

row,Substance,amyloid nucleation score
1,LCWLATRVLSSNDSLYENME,3.65 ± 0.071
2,LCYMGRVA,0.224 ± 0.34
3,LDCLRFTDFILIISKFVPVL,0.026 ± 1.1
4,LDFHPVCRGMSSPCQCASMR,0.907 ± 0.2
5,LDKKVSVSAVRLTRRDASEE,2.25 ± 0.098
6,LDSSMSTGNLRLCFFESICS,0.232 ± 0.56
7,LDYDKNKFWAQHLYSKQSSL,0.805 ± 0.23
8,LDYRWKTGGSLWGG,-0.578 ± 1.1
9,LEAFWKVKSCSVRTGVYGID,-0.555 ± 0.79
10,LERLVSALLHTIRFRRMVVH,inactive
11,LESHLVMRYS,-0.307 ± 0.48
12,LEVKEVSEFLRLTYMYL,-1.67 ± 0.62
13,LFAIKTGQDHCNTRLKKSQC,-0.087 ± 0.76
14,LFCSRQSTWPRDKGVFPWTI,-0.916 ± 1.1
15,LFCTRMEVSLLGFWNSYAEL,-0.01 ± 0.45
16,LFDFGETVVIVLHVHSMLCL,4.41 ± 0.092
17,LFERFWFIL,0.187 ± 0.23
18,LFFSATKTCSWSLKECAKR,-0.243 ± 1.1
19,LFGLNFNLSNNLFMFFSYTQ,3.46 ± 0.082
20,LFLGLFKLCNLASFMLWSWF,-0.627 ± 1
21,LFNGECGICDQEKYLVRQTV,0.065 ± 1.1
22,LFNLKMSPSQRKNGLPVLTI,inactive
23,LFSCGKSMQLVMWYGLSFCG,0.306 ± 0.37
24,LFSLPPCFN,1.5 ± 0.11
25,LFVCMTLGYSLGKSHFDNGS,4.1 ± 0.044

row,Substance,amyloid nucleation score
1,LFVIWNTCVNYFLDVLSGHN,3.86 ± 0.12
2,LFVLLSDKTHSYSYAECQPM,3.65 ± 0.052
3,LFVYWV,0.126 ± 0.38
4,LGFAGSVGICDRKTLDRREC,4.91 ± 0.064
5,LGFDASLKLFLVQQGLSN,-0.341 ± 0.33
6,LGIYIVGTNVSSSWLFLCNR,0.476 ± 0.4
7,LGKFFNNPLLFGFY,inactive
8,LGLCEVNMFNIRHFTLRSCY,0.219 ± 1
9,LGLLCTVEIHYLGNMYIHRP,7.043 ± 0.045
10,LGLTSHTVPKCRCVGLMLMV,0.438 ± 0.29
11,LGMCRGLRLIMMDWFGSDKM,2.35 ± 0.075
12,LGSLDPKRHLYI,-0.784 ± 1.1
13,LGSLDSVFNSFHRAGS,-0.518 ± 0.56
14,LGTAKNFIPSGNVRLLALQF,inactive
15,LGTNMAMVGSN,-0.623 ± 0.27
16,LGVMRIVHVGLWSAR,-0.249 ± 0.55
17,LGWRVGWYASDAFYKPEWFD,-0.53 ± 0.41
18,LGYTSFYSFILKEGMFTAMG,0.434 ± 0.27
19,LHAGPDKSA,0.068 ± 0.46
20,LHIRVLSQVRLCDDWRASAS,-0.016 ± 0.33
21,LHMECLKDKSCNNSSADVRG,0.374 ± 0.62
22,LIADLQKFSYVSWAGCMTY,4.4 ± 0.085
23,LIICSAPCCVTTWQQLRTMQ,4.15 ± 0.047
